Test [1] addresses BaxΔC21 (UniProt Q07812).
The target of test [2] is BaxΔC21 (UniProt Q07812). The test can be described thus: SPR; competition in solution: BaxΔC21 at 25 nM incubated with increasing concentrations of BH3 peptide in 10 mM HEPES, 150 mM NaCl, 3.4 mM EDTA, 0.005% Tween-20, pH 7.4 with 0.5% octylglucoside, injected onto a CM5 chip with immobilised BimBH3; Bim4E channel subtracted; IC50. (Surface plasmon resonance follows binding to a sensor surface in real time, without labels.)

Here are results for 3 substances from PMC4650713, “Crystal structure of Bax bound to the BH3 peptide of Bim identifies important contacts for interaction” (Cell Death & Disease, 2015).

Usually IC50 stands for the midpoint of a concentration-inhibition curve.

BaxΔC21, sequence (Q07812 1-171 C62S/C126S): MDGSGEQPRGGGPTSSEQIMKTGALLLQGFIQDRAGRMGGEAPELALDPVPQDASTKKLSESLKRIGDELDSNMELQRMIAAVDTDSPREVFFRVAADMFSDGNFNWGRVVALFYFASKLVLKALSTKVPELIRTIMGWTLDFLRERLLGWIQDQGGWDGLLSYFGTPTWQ

In turn, BimBH3 E145K (peptide) came in with a core/latch dimer formation of BaxΔC21 triggered by the peptide with CHAPS (gel filtration) with BaxΔC21 [1] of more than 50%. Further, in the test with BaxΔC21 [2], the IC50 is 2.4 µM and the fold weaker binding than BimBH3 stood at 40 fold.
Take BimBH3 P144A/E145A (peptide): the fold loss of affinity against BimBH3 with BaxΔC21 [2] was 3 fold.
Turning to BimBH3 peptide, the fold tighter binding than BidBH3 in the test with BaxΔC21 [2] was 5 fold.
